Data set [1] concerns the target T1, non-geranylgeranylated GBP5 (guanylate binding protein 5) (human), Q96PP8.
T1 chain: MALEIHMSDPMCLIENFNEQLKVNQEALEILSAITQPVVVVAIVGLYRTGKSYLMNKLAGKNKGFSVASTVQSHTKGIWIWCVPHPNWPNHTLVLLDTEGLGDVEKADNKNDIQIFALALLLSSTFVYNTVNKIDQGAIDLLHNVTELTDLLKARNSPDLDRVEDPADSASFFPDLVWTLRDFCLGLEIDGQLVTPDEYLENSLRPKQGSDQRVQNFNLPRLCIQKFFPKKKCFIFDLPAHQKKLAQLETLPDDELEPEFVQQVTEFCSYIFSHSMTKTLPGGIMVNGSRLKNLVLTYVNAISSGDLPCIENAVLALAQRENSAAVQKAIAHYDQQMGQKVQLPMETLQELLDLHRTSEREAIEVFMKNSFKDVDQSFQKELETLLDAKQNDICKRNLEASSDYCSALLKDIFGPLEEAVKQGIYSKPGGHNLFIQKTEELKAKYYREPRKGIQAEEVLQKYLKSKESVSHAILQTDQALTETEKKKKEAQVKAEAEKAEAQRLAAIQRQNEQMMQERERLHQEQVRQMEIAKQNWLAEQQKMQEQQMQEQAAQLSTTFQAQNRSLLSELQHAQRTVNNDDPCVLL
The data set can be described thus: dynamic light scattering. As to conditions: remark: other sources report otherwise.

The target in data set [2] is T2, geranylgeranylated GBP5 (guanylate binding protein 5) (human), Q96PP8.
T2 chain: T1 chain
Description: dynamic light scattering. The settings on record: remark: other sources report otherwise.

Data set [3] deals with T3, farnesylated GBP1 (guanylate binding protein 1) (human, UniProt P32455 1-592, farnesylated in vitro (C-terminal farnesyl moiety)).
T3 sequence: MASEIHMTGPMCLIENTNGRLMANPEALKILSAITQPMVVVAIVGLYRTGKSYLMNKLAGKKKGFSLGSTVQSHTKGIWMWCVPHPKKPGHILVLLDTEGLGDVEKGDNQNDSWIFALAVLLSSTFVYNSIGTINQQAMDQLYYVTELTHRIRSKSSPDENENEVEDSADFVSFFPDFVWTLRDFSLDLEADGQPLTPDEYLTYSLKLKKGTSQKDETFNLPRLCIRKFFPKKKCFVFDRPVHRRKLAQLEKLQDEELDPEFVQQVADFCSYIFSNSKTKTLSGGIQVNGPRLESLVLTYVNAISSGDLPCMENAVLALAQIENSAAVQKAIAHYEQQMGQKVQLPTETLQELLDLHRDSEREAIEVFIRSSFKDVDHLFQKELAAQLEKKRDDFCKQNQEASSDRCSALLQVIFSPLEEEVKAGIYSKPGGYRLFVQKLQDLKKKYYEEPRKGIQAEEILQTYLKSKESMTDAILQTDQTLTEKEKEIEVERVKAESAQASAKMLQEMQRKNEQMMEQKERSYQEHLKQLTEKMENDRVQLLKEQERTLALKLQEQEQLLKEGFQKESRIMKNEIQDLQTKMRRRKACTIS
The data set can be described thus: absorbance-based light scattering.

Data set [4] concerns the molecule itself. Description: dynamic light scattering.
Data set [5] has as its target T4, non-farnesylated GBP1 (guanylate binding protein 1) (human), P32455.
T4 chain: T3 sequence
Description: dynamic light scattering. As to conditions: remark: other sources report otherwise.

B1: non-geranylgeranylated GBP5 (guanylate binding protein 5), Q96PP8 1-586 (natural protein)
chain: T1 chain
What is called stoichiometry N is the number of molecules, sites or subunits per partner or assembly. Molecule B1 gave a stoichiometry N in data set [1] of 2.

B2: geranylgeranylated GBP5 (guanylate binding protein 5), Q96PP8 1-586 (natural protein)
chain: T1 chain
modifications: here or on the partner: geranylgeranylated in vitro (C-terminal geranylgeranyl moiety); geranylgeranylated in vitro (C-terminal geranylgeranyl moiety)
In data set [2], B2 showed a stoichiometry N of 2.

B3: geranylgeranylated GBP5 (guanylate binding protein 5) (natural protein, human, UniProt Q96PP8 1-586, looked up)
chain: T1 chain
modifications: geranylgeranylated in vitro (C-terminal geranylgeranyl moiety)
On to B3, for which the binding result in data set [3] was “binds”.

B4: geranylgeranylated GBP2 (guanylate binding protein 2) (natural protein, human, UniProt P32456 1-591, looked up)
chain: MAPEINLPGPMSLIDNTKGQLVVNPEALKILSAITQPVVVVAIVGLYRTGKSYLMNKLAGKKNGFSLGSTVKSHTKGIWMWCVPHPKKPEHTLVLLDTEGLGDIEKGDNENDSWIFALAILLSSTFVYNSMGTINQQAMDQLHYVTELTDRIKANSSPGNNSVDDSADFVSFFPAFVWTLRDFTLELEVDGEPITADDYLELSLKLRKGTDKKSKSFNDPRLCIRKFFPKRKCFVFDWPAPKKYLAHLEQLKEEELNPDFIEQVAEFCSYILSHSNVKTLSGGIPVNGPRLESLVLTYVNAISSGDLPCMENAVLALAQIENSAAVEKAIAHYEQQMGQKVQLPTETLQELLDLHRDSEREAIEVFMKNSFKDVDQMFQRKLGAQLEARRDDFCKQNSKASSDCCMALLQDIFGPLEEDVKQGTFSKPGGYRLFTQKLQELKNKYYQVPRKGIQAKEVLKKYLESKEDVADALLQTDQSLSEKEKAIEVERIKAESAEAAKKMLEEIQKKNEEMMEQKEKSYQEHVKQLTEKMERDRAQLMAEQEKTLALKLQEQERLLKEGFENESKRLQKDIWDIQMRSKSLEPICNIL
modifications: geranylgeranylated in vitro (C-terminal geranylgeranyl moiety)
With B4, the binding result in data set [3] and in data set [4] was “binds” in each case.

B5: non-geranylgeranylated GBP2 (guanylate binding protein 2) (natural protein, human, UniProt P32456 1-591, looked up)
chain: B4 chain
Turning to B5, the “stoichiometry N” value in data set [4] was determined as 2.

B6: non-farnesylated GBP1 (guanylate binding protein 1), P32455 1-592 (natural protein)
chain: T3 sequence
On to B6, for which, in data set [5], the stoichiometry N was found to be 2.

For the origin of these results see publication doi:10.1101/2022.10.05.511023 (bioRxiv, 2022).
